Reference: paper PMC9429925
One block for each substance: values may come before it.

What was measured:
OmpR (Escherichia coli) = OmpR (Escherichia coli) (UniProt P0AA16); settings: cited from earlier work
[1] = biological target: FixJ (Rhizobium meliloti) (UniProt P10958); settings: cited from earlier work
DcuR = DcuR (UniProt P0AD01); assay: size exclusion chromatography with SDS-PAGE of fractions; settings: reference: PASC-Kin without ATP, mixed with DcuR; sites H349

Sequence of FixJ (Rhizobium meliloti) (P10958 whole entry): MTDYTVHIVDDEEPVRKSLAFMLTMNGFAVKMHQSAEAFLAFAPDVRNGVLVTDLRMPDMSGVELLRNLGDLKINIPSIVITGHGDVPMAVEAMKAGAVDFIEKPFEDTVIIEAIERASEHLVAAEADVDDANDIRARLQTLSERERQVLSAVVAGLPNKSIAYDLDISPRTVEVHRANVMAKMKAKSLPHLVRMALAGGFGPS
Sequence of EnvZ cytoplasmic portion (P0AEJ4 180-450): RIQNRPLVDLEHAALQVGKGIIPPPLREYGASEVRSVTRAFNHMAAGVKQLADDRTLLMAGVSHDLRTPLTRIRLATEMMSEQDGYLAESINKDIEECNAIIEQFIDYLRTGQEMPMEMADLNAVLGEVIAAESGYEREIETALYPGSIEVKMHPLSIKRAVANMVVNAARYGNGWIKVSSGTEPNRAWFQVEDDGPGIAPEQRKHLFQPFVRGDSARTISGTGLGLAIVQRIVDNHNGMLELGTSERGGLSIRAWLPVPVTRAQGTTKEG
Sequence of OmpR (Escherichia coli) (P0AA16 whole entry): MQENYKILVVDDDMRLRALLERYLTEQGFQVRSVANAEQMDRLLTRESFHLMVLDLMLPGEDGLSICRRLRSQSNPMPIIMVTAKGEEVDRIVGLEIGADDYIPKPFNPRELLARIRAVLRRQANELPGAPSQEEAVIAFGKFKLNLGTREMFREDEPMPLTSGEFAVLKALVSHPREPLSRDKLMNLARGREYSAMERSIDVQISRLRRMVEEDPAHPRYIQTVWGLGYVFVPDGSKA
Sequence of FixL heme-binding and kinase domains (P10955 127-505): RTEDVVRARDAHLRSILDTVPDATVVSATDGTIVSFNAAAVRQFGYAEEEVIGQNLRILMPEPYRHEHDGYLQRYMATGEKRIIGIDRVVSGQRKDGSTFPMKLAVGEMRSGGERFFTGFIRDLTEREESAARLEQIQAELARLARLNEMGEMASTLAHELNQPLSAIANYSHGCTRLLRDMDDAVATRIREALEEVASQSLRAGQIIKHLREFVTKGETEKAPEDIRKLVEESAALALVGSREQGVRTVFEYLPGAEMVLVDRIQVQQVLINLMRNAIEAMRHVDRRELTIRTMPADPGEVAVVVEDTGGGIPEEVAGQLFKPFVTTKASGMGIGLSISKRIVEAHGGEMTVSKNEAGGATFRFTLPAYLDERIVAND

Substance: EnvZ cytoplasmic portion (from UniProt P0AEJ4)
Kd (OmpR (Escherichia coli)): 0.425 µM

Substance: FixL heme-binding and kinase domains (from UniProt P10955)
Kd [1]: 4 µM

other: mol DcuR per mol PASC-Kin in complex peak (DcuR): stronger; reference approximately 0.11
Substance: DcuS (cytoplasmic part: PASC-Kin) PASC-Kin, 212-539 (from UniProt P0AEC8) PASC-Kin pre-incubated with ATP, mixed with DcuR
